From publication PMC10411625, “Rationally designed stapled peptides allosterically inhibit PTBP1–RNA-binding†” (Chemical Science, 2023)
Positions of bridges follow the written chain, without caps; N, C: chain ends. Non-standard residues stand in square brackets, D forms with d. No end group written: not given here. S5 = C=CCCC[C@](C)(N)C(=O)O

T1: PTBP1 RRM1 (single first RNA-recognition motif with the α3-helix) (human)
T1 chain: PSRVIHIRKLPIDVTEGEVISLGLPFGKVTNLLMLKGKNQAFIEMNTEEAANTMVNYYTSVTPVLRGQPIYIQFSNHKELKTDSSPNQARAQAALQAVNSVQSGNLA


What was measured:
Settings in all cases: both partners purified
[1] = target: T2, PTBP1 RRM1 and 2 combined (RRM12) (human); assay: fluorescence polarisation; competitive: peptide varied against RRM12 and the FAM-labelled RNA-2 tracer; Ki from loss of RNA binding
T2 construct: Methods and construct limits are not in the main text (supplementary file)

[2] = target: T1, PTBP1 RRM1 (single first …); assay: MST; microscale thermophoresis of P-6F with the PTBP1 constructs
PTBP1 RRM12–L151G mutant [3] = target: PTBP1 RRM12–L151G mutant (human); assay: as above
[4] = target: T1, PTBP1 RRM1 (single first …); assay: fluorescence polarisation; direct binding: FITC-labelled P-6F titrated with the PTBP1 construct
PTBP1 RRM12–L151G mutant [5] = target: PTBP1 RRM12–L151G mutant (human); assay: as above

Row | Ki [1] [µM] | Kd [2] [µM] | Kd (PTBP1 RRM12–L151G mutant [3]) [µM] | Kd [4] [µM] | Kd (PTBP1 RRM12–L151G mutant [5]) [µM] | Binder
1 | 11.6 |  |  |  |  | NQ[S5]RAQ[S5]ALQAVN-NH2 (staple 3-7; also: staple alkene reduced) [P-2, i, i + 4 hydrocarbon-stapled peptide derived from the PTBP1 α3-helix]
2 |  | 98.1 | 44.5 | 18.6 | 20.4 | NQARAQAALQAVN (also: stitched hydrocarbon staple linking residues 145, 149 and 153, FITC label, place not given here) [P-6F, FITC-labeled variant of P-6]
